Source: ChEMBL document CHEMBL4414660, “Effect of Modifier Structure on the Activation of Leukotriene A4 Hydrolase Aminopeptidase Activity” (J Med Chem, 2019)

Tests used:
Details in all cases: Homo sapiens
[1] = compound: COc1ccc(Cc2ccc(-c3csc(N)n3)cc2)cc1; assay: (§1) Activation of N-terminal (His)6 and Xpress-tagged LTA4H (unknown origin) expressed in Escherichia coli BL21(DE3) cells assessed as increase in aminopeptidase activity by measuring Kcat for p-nitroanilide release at 0.1 uM using L-Alanine-p-nitroanilide incubated for 10 mins by UV plate reader based assay
[2] = compound: COc1ccc(Cc2ccccc2)cc1; assay: as §1
[3] = compound: Cc1ccc(Cc2ccc(-c3csc(N)n3)cc2)cc1; assay: as §1
[4] = compound: Nc1nc(-c2ccc(Cc3ccc(C(F)(F)F)cc3)cc2)cs1; assay: as §1
[5] = compound: Nc1nc(-c2ccc(Cc3ccccc3)cc2)cs1; assay: as §1
[6] = compound: COc1ccc(Cc2ccc(-c3csc(N)n3)cc2)cc1; assay: (§2) Activation of N-terminal (His)6 and Xpress-tagged LTA4H (unknown origin) expressed in Escherichia coli BL21(DE3) cells assessed as increase in aminopeptidase activity by measuring Kcat for p-nitroanilide release at 0.5 uM using L-Alanine-p-nitroanilide incubated for 10 mins by UV plate reader based assay
[7] = compound: COc1ccc(Cc2ccccc2)cc1; assay: as §2
[8] = compound: Cc1ccc(Cc2ccc(-c3csc(N)n3)cc2)cc1; assay: as §2
[9] = compound: Nc1nc(-c2ccc(Cc3ccc(C(F)(F)F)cc3)cc2)cs1; assay: as §2
[10] = compound: Nc1nc(-c2ccc(Cc3ccccc3)cc2)cs1; assay: as §2
[11] = compound: COc1ccc(Cc2ccc(-c3csc(N)n3)cc2)cc1; assay: (§3) Activation of N-terminal (His)6 and Xpress-tagged LTA4H (unknown origin) expressed in Escherichia coli BL21(DE3) cells assessed as increase in aminopeptidase activity by measuring Kcat for p-nitroanilide release at 1 uM using L-Alanine-p-nitroanilide incubated for 10 mins by UV plate reader based assay
[12] = compound: COc1ccc(Cc2ccccc2)cc1; assay: as §3
[13] = compound: Cc1ccc(Cc2ccc(-c3csc(N)n3)cc2)cc1; assay: as §3
[14] = compound: Nc1nc(-c2ccc(Cc3ccc(C(F)(F)F)cc3)cc2)cs1; assay: as §3
[15] = compound: Nc1nc(-c2ccc(Cc3ccccc3)cc2)cs1; assay: as §3
[16] = compound: COc1ccc(Cc2ccc(-c3csc(N)n3)cc2)cc1; assay: (§4) Activation of N-terminal (His)6 and Xpress-tagged LTA4H (unknown origin) expressed in Escherichia coli BL21(DE3) cells assessed as increase in aminopeptidase activity by measuring Kcat for p-nitroanilide release at 5 uM using L-Alanine-p-nitroanilide incubated for 10 mins by UV plate reader based assay
[17] = compound: COc1ccc(Cc2ccccc2)cc1; assay: as §4
[18] = compound: Cc1ccc(Cc2ccc(-c3csc(N)n3)cc2)cc1; assay: as §4
[19] = compound: Nc1nc(-c2ccc(Cc3ccc(C(F)(F)F)cc3)cc2)cs1; assay: as §4
[20] = compound: Nc1nc(-c2ccc(Cc3ccccc3)cc2)cs1; assay: as §4
[21] = compound: COc1ccc(Cc2ccc(-c3csc(N)n3)cc2)cc1; assay: (§5) Activation of N-terminal (His)6 and Xpress-tagged LTA4H (unknown origin) expressed in Escherichia coli BL21(DE3) cells assessed as increase in aminopeptidase activity by measuring Kcat for p-nitroanilide release at 10 uM using L-Alanine-p-nitroanilide incubated for 10 mins by UV plate reader based assay
[22] = compound: COc1ccc(Cc2ccccc2)cc1; assay: as §5
[23] = compound: Cc1ccc(Cc2ccc(-c3csc(N)n3)cc2)cc1; assay: as §5
[24] = compound: Nc1nc(-c2ccc(Cc3ccc(C(F)(F)F)cc3)cc2)cs1; assay: as §5
[25] = compound: Nc1nc(-c2ccc(Cc3ccccc3)cc2)cs1; assay: as §5
[26] = compound: COc1ccc(Cc2ccc(-c3csc(N)n3)cc2)cc1; assay: (§6) Activation of N-terminal (His)6 and Xpress-tagged LTA4H (unknown origin) expressed in Escherichia coli BL21(DE3) cells assessed as increase in aminopeptidase activity by measuring Km for p-nitroanilide release at 0.1 uM using L-Alanine-p-nitroanilide incubated for 10 mins by UV plate reader based assay
[27] = compound: COc1ccc(Cc2ccccc2)cc1; assay: as §6
[28] = compound: Cc1ccc(Cc2ccc(-c3csc(N)n3)cc2)cc1; assay: as §6
[29] = compound: Nc1nc(-c2ccc(Cc3ccc(C(F)(F)F)cc3)cc2)cs1; assay: as §6
[30] = compound: Nc1nc(-c2ccc(Cc3ccccc3)cc2)cs1; assay: as §6
[31] = compound: COc1ccc(Cc2ccc(-c3csc(N)n3)cc2)cc1; assay: (§7) Activation of N-terminal (His)6 and Xpress-tagged LTA4H (unknown origin) expressed in Escherichia coli BL21(DE3) cells assessed as increase in aminopeptidase activity by measuring Km for p-nitroanilide release at 0.5 uM using L-Alanine-p-nitroanilide incubated for 10 mins by UV plate reader based assay
[32] = compound: COc1ccc(Cc2ccccc2)cc1; assay: as §7
[33] = compound: Cc1ccc(Cc2ccc(-c3csc(N)n3)cc2)cc1; assay: as §7
[34] = compound: Nc1nc(-c2ccc(Cc3ccc(C(F)(F)F)cc3)cc2)cs1; assay: as §7
[35] = compound: Nc1nc(-c2ccc(Cc3ccccc3)cc2)cs1; assay: as §7
[36] = compound: COc1ccc(Cc2ccc(-c3csc(N)n3)cc2)cc1; assay: (§8) Activation of N-terminal (His)6 and Xpress-tagged LTA4H (unknown origin) expressed in Escherichia coli BL21(DE3) cells assessed as increase in aminopeptidase activity by measuring Km for p-nitroanilide release at 1 uM using L-Alanine-p-nitroanilide incubated for 10 mins by UV plate reader based assay
[37] = compound: COc1ccc(Cc2ccccc2)cc1; assay: as §8

B1: Leukotriene A-4 hydrolase (Homo sapiens), P09960 (protein)
chain: MPEIVDTCSLASPASVCRTKHLHLRCSVDFTRRTLTGTAALTVQSQEDNLRSLVLDTKDLTIEKVVINGQEVKYALGERQSYKGSPMEISLPIALSKNQEIVIEISFETSPKSSALQWLTPEQTSGKEHPYLFSQCQAIHCRAILPCQDTPSVKLTYTAEVSVPKELVALMSAIRDGETPDPEDPSRKIYKFIQKVPIPCYLIALVVGALESRQIGPRTLVWSEKEQVEKSAYEFSETESMLKIAEDLGGPYVWGQYDLLVLPPSFPYGGMENPCLTFVTPTLLAGDKSLSNVIAHEISHSWTGNLVTNKTWDHFWLNEGHTVYLERHICGRLFGEKFRHFNALGGWGELQNSVKTFGETHPFTKLVVDLTDIDPDVAYSSVPYEKGFALLFYLEQLLGGPEIFLGFLKAYVEKFSYKSITTDDWKDFLYSYFKDKVDVLNQVDWNAWLYSPGLPPIKPNYDMTLTNACIALSQRWITAKEDDLNSFNATDLKDLSSHQLNEFLAQTLQRAPLPLGHIKRMQEVYNFNAINNSEIRFRWLRLCIQSKWEDAIPLALKMATEQGRMKFTRPLFKDLAAFDKSHDQAVRTYQEHKASMHPVTAMLVGKDLKVD
Question: With B1 as the protein, how does the kcat [1] read?
Answer: 9.98 s⁻¹

Question: And the kcat [2]?
Answer: 3.01 s⁻¹

Question: And the kcat [3]?
Answer: 21.1 s⁻¹

Question: And the kcat [4]?
Answer: 1.91 s⁻¹

Question: What about the kcat [5] of the same protein?
Answer: 9.63 s⁻¹

Question: And the kcat [6]?
Answer: 25.9 s⁻¹

Question: And the kcat [7]?
Answer: 5.54 s⁻¹

Question: What about the kcat [8] of the same protein?
Answer: 31.3 s⁻¹

Question: And the kcat [9]?
Answer: 5.09 s⁻¹

Question: And the kcat [10]?
Answer: 21.1 s⁻¹

Question: What about the kcat [11] of the same protein?
Answer: 32 s⁻¹

Question: And the kcat [12]?
Answer: 8.68 s⁻¹

Question: What about the kcat [13] of the same protein?
Answer: 32.5 s⁻¹

Question: What about the kcat [14] of the same protein?
Answer: 8.23 s⁻¹

Question: And the kcat [15]?
Answer: 31.9 s⁻¹

Question: And the kcat [16]?
Answer: 45.2 s⁻¹

Question: What about the kcat [17] of the same protein?
Answer: 23.9 s⁻¹

Question: And the kcat [18]?
Answer: 34.3 s⁻¹

Question: And the kcat [19]?
Answer: 20.9 s⁻¹

Question: And the kcat [20]?
Answer: 42.2 s⁻¹

Question: What about the kcat [21] of the same protein?
Answer: 44.1 s⁻¹

Question: And the kcat [22]?
Answer: 30.3 s⁻¹

Question: And the kcat [23]?
Answer: 35.6 s⁻¹

Question: And the kcat [24]?
Answer: 23.2 s⁻¹

Question: And the kcat [25]?
Answer: 39.6 s⁻¹

Question: And the Km [26]?
Answer: 2050 µM

Question: And the Km [27]?
Answer: 980 µM

Question: What about the Km [28] of the same protein?
Answer: 3300 µM

Question: And the Km [29]?
Answer: 2270 µM

Question: What about the Km [30] of the same protein?
Answer: 2170 µM

Question: What about the Km [31] of the same protein?
Answer: 4180 µM

Question: And the Km [32]?
Answer: 910 µM

Question: And the Km [33]?
Answer: 3110 µM

Question: What about the Km [34] of the same protein?
Answer: 4210 µM

Question: And the Km [35]?
Answer: 2990 µM

Question: And the Km [36]?
Answer: 4750 µM

Question: And the Km [37]?
Answer: 1030 µM
